Measured values: publication PMC4256047, “Structural and Functional Profiling of Environmental Ligands for Estrogen Receptors” (Environmental Health Perspectives, 2014)
Where no end group is shown, it is not given here. fluorescein = fluorescein label on the N-terminus of the peptide

What was measured:
Details in all cases: both partners purified
[1] = molecular target: T1, human wt-ERα LBD (estrogen receptor alpha ligand-binding domain, amino acids 302-552) (human, UniProt P03372 302-552); experiment: fluorescence polarisation; fluorescence anisotropy; 4 nM fluorescein-SRC-1 NR2 peptide, LBD diluted 2-fold from 10 uM (ERα) or 20 uM (ERβ); with E2 at 20 uM (ERα) or 40 uM (ERβ); 20 mM Tris pH 8.0, 150 mM NaCl, 5 mM DTT, 10% glycerol
T1 sequence (looked up): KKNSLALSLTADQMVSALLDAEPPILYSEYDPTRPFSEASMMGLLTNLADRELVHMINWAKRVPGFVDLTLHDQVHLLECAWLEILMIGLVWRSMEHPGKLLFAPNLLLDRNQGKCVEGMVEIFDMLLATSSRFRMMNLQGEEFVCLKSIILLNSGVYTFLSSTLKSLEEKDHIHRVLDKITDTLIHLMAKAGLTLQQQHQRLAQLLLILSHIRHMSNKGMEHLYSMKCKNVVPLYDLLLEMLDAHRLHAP

[2] = molecular target: T2, human wt-ERβ LBD (estrogen receptor beta ligand-binding domain, amino acids 261-502) (human, UniProt Q92731 261-502); experiment: as above
T2 construct: Cloned into pET-32a; N-terminal thioredoxine-hexahistidine tag removed with TEV protease; not shown: thioredoxin, N-terminal, cleaved; His6, N-terminal, cleaved
T2 sequence (Q92731 261-502): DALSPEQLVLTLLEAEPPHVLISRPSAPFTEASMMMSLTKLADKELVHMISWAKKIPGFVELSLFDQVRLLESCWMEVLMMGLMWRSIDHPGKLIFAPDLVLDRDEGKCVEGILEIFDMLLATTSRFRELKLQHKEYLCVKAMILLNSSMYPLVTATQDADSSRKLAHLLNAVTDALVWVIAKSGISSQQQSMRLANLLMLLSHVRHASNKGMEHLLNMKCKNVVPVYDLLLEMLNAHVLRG

[3] = molecular target: T2, human wt-ERβ LBD (estrogen receptor …); experiment: fluorescence polarisation; fluorescence anisotropy; 4 nM fluorescein-SRC-1 NR2 peptide, LBD diluted 2-fold from 10 uM (ERα) or 20 uM (ERβ); with BBP at 20 uM (ERα) or 40 uM (ERβ); 20 mM Tris pH 8.0, 150 mM NaCl, 5 mM DTT, 10% glycerol
[4] = molecular target: T1, human wt-ERα LBD (estrogen receptor …); experiment: fluorescence polarisation; fluorescence anisotropy; 4 nM fluorescein-SRC-1 NR2 peptide, LBD diluted 2-fold from 10 uM (ERα) or 20 uM (ERβ); with BPA at 20 uM (ERα) or 40 uM (ERβ); 20 mM Tris pH 8.0, 150 mM NaCl, 5 mM DTT, 10% glycerol
[5] = molecular target: T2, human wt-ERβ LBD (estrogen receptor …); experiment: as above
[6] = molecular target: T1, human wt-ERα LBD (estrogen receptor …); experiment: fluorescence polarisation; fluorescence anisotropy; 4 nM fluorescein-SRC-1 NR2 peptide, LBD diluted 2-fold from 10 uM (ERα) or 20 uM (ERβ); in the absence of ligand (apo-receptor); 20 mM Tris pH 8.0, 150 mM NaCl, 5 mM DTT, 10% glycerol
[7] = molecular target: T2, human wt-ERβ LBD (estrogen receptor …); experiment: as above
[8] = molecular target: T2, human wt-ERβ LBD (estrogen receptor …); experiment: fluorescence polarisation; fluorescence anisotropy; 4 nM fluorescein-SRC-1 NR2 peptide, LBD diluted 2-fold from 10 uM (ERα) or 20 uM (ERβ); with BP-2 at 20 uM (ERα) or 40 uM (ERβ); 20 mM Tris pH 8.0, 150 mM NaCl, 5 mM DTT, 10% glycerol
[9] = molecular target: T1, human wt-ERα LBD (estrogen receptor …); experiment: fluorescence polarisation; fluorescence anisotropy; 4 nM fluorescein-SRC-1 NR2 peptide, LBD diluted 2-fold from 10 uM (ERα) or 20 uM (ERβ); with α-ZA at 20 uM (ERα) or 40 uM (ERβ); 20 mM Tris pH 8.0, 150 mM NaCl, 5 mM DTT, 10% glycerol
[10] = molecular target: T2, human wt-ERβ LBD (estrogen receptor …); experiment: fluorescence polarisation; fluorescence anisotropy; 4 nM fluorescein-SRC-1 NR2 peptide, LBD diluted 2-fold from 10 uM (ERα) or 20 uM (ERβ); with TCBPA at 20 uM (ERα) or 40 uM (ERβ); 20 mM Tris pH 8.0, 150 mM NaCl, 5 mM DTT, 10% glycerol
[11] = molecular target: T2, human wt-ERβ LBD (estrogen receptor …); experiment: fluorescence polarisation; fluorescence anisotropy; 4 nM fluorescein-SRC-1 NR2 peptide, LBD diluted 2-fold from 10 uM (ERα) or 20 uM (ERβ); with chlordecone at 20 uM (ERα) or 40 uM (ERβ); 20 mM Tris pH 8.0, 150 mM NaCl, 5 mM DTT, 10% glycerol
[12] = molecular target: T2, human wt-ERβ LBD (estrogen receptor …); experiment: fluorescence polarisation; fluorescence anisotropy; 4 nM fluorescein-SRC-1 NR2 peptide, LBD diluted 2-fold from 10 uM (ERα) or 20 uM (ERβ); with butylparaben at 20 uM (ERα) or 40 uM (ERβ); 20 mM Tris pH 8.0, 150 mM NaCl, 5 mM DTT, 10% glycerol

Kd [1]: 0.11 µM
Kd [2]: 0.68 µM
Kd [3]: 10.6 µM
Kd [4]: 1.76 µM
Kd [5]: 1.31 µM
Kd [6]: 6.28 µM
Kd [7]: 4.54 µM
Kd [8]: 0.99 µM
Kd [9]: 0.33 µM
Kd [10]: 4.33 µM
Kd [11]: 9.13 µM
Kd [12]: 1.13 µM
B1: fluorescein-RHKILHRLLQEGS peptide corresponding to the NR box 2-binding motif of SRC-1 (peptide)
peptide: fluorescein-RHKILHRLLQEGS
notes: also called SRC-1 NR2 peptide; fluorescein-labeled SRC-1 NR2 peptide; source: bought: EZbiolab
